Ends that are not written are not given here.
Tests used:
full length PTH-R = target: T1, full length PTH-R (Didelphis virginiana, UniProt P25107); details: native opossom kidney cells; Juppner et al. (1991); cited from earlier work
T1 construct: host or cells: native opossum kidney cells

[1] = Isoelectric focusing (IEF) of the purified peptide; assay type: physicochemical; details: HPLC-purified peptide after CNBr cleavage
Method: The precipitated PTH polymer was then dissolved in 70% formic acid, and a 500-fold (100 to 1000-fold excess can be used) molar excess of CNBr was added. […] After CNBr cleavage, the peptides were lyophilized and resuspended in distilled water. The peptide was purified resuspended in Buffer A (0.1% TFA) and further purified by HPLC using a VYDAC C-18 Hamilton semi-preparative column. Approximately 30 mg of peptide was injected onto the column. The peptide was then eluted with a gradient of 20-40% acetonitrile/0.1% TFA over 40 minutes. The major peak, eluting at approximately 15 minutes, was collected and lyophilized to dryness. Analysis of this peptide by SDS-PAGE and IEF indicated a single species of approximately 4000 daltons with an isoelectric point of approximately 8.7.

PTH receptor = target: T2, PTH receptor (Rattus norvegicus, UniProt P25961); test: PTH analog activity assay: intracellular cAMP concentration in UMR106 cells; assay type: cell-based; details: rat osteosarcoma cell line UMR106, cAMP by scintillation proximity assay, 1 mM IBMX, 5 minutes at room temperature
T2 construct: host or cells: UMR106 rat osteosarcoma cells
T2 sequence (P25961 27-591): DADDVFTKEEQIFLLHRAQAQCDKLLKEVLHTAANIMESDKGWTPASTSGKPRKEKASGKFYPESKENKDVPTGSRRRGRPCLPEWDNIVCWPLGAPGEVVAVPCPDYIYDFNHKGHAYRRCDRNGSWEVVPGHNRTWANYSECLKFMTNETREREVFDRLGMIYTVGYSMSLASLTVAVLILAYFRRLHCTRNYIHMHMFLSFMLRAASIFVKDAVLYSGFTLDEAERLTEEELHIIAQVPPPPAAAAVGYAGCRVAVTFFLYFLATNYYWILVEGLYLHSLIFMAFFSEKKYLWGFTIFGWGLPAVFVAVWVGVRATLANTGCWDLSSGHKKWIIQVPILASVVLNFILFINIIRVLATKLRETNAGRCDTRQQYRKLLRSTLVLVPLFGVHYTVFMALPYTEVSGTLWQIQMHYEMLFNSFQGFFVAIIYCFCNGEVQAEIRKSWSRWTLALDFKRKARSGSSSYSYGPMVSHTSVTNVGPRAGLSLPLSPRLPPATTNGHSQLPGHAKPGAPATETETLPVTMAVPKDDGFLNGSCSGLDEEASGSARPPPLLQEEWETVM
Method: PTH concentrations were determined by OD280 using an extinction coefficient of 6600 for the recombinant peptide and 5500 for the synthetic peptide. The rat osteosarcoma cell line UMR106 (ATCC CRL 1661) was used for in vitro testing of the peptide's ability to activate the PTH receptor. Activation of the PTH receptor leads to an intracellular rise in cAMP concentration.
The UMR106 cells were plated at 1.2×10^5 per well in a 48 well dish. The media (DMEM with fetal calf serum) was removed, and 1 mL of fresh media was applied. PTH (recombinant or synthetic) at various concentrations and 3-isobutyl-1-methyl xanthine (IBMX) at 1 mM final concentration were then added to each well of the plate, which was then incubated for 5 minutes at room temperature. The media was then removed and the cells quickly washed with PBS. The cells were then extracted three times with 1 mL of absolute ethanol. The three extractions were combined and the ethanol removed by evaporation in a "speed vac" centrifuge. The extract was then redissolved in 0.5 mL of buffer (0.05M NaAcetate, pH=5.8, and 0.01% azide). The cAMP concentration was determined by scintillation proximity assay using a kit available from Amersham.

T1 sequence (P25107 27-585): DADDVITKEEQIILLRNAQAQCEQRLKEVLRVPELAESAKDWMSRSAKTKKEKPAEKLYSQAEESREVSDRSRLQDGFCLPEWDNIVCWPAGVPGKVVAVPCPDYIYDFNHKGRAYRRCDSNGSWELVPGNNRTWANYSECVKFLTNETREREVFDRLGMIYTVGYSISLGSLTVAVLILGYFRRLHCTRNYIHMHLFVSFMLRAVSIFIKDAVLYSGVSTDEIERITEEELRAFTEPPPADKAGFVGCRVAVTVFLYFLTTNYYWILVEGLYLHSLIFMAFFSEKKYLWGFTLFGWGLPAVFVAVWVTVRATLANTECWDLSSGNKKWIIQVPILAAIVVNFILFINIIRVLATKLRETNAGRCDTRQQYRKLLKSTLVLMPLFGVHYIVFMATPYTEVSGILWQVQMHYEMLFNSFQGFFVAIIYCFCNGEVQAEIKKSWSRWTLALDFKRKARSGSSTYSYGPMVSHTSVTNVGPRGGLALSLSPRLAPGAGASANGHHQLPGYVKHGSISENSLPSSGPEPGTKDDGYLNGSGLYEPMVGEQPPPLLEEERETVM

Substance	Kd (full length PTH-R) [nM]	isoelectric point [1]	activity relative to synthetic human PTH (more active) (PTH receptor)
PTH (1-34): PTH ligand bound by the native full length PTH receptor, per Juppner et al. 1991	~0.5	–	–
recombinant PTH analog: 35 amino acid Ho/Hol PTH analog (SEQ ID NO:4/5) from CNBr cleavage of 8-mer fusion protein expressed from pBAD/PTH/OC in E. coli (SVSEIQLLHNLGKHLNSLERVEWLRKKLQDVHNYX; X: randomised place (mixture); also: X35: homoserine or homoserine lactone (mixture))	–	approximately 8.7	2-to-10 fold

From patent US5814603A, “Compounds with PTH activity” (Affymax Technologies N.V., priority 1993, dated 1998)
